In patent publication US20100015126A1, “Methods of Binding of Cross-Beta Structures By Chaperones” (priority 2006, published 2010):

biological target: T1, Escherichia coli HSP70 family member DnaK (Escherichia coli, UniProt P0A6Y8); assay: ELISA: binding of DnaK to immobilized (misfolded) protein ligands
T1 construct: purchased Stressgen (Ann Arbor, Mich., USA) SPP-630
Method: Recombinant Escherichia coli (E. coli) DnaK was purchased from Stressgen (Ann Arbor, Mich., USA; SPP-630). For the binding studies first lot B502468 (100 μg, lot A) and then lot 05240609 (200 μg, lot B) was used.
Binding of chaperones to immobilized (misfolded) protein ligands was determined using an enzyme linked immuno sorbent assay (ELISA) approach. For this purpose 50 μl/well of potential ligands at indicated concentrations or coat buffer only for control and background measurement purposes, were coated overnight at 4° C. or coated for 1 h at room temperature, with motion, in 50 mM NaHCO3 pH 9.6 (coat buffer). In general, ligands were coated at 5 μg/ml, unless stated otherwise. For example, BiP binding peptides 6BB# and oxLDL were coated at 50 μg/ml. Native haemoglobin (Sigma-Aldrich, H7379), albumin, IgIV Gammagard and ovalbumin controls were prepared from lyophilized stocks. The controls were prepared by dissolving lyophilized proteins at 1 mg/ml in PBS upon resuspending by pipetting, followed by a 30 minutes period at the roller device, at room temperature. The protein solutions were centrifuged for 10 minutes at 16,000*g and diluted in coat buffer. After coating the plates were washed at least three times with 50 mM Tris-HCl pH 7.3, 150 mM NaCl, 0.1% v/v Tween20, and blocked with Blocking reagent (Roche Diagnostics, Almere, The Netherlands; 11112589001), for 1 h at room temperature, with motion. Plates were washed three times and incubated in triplicate with indicated chaperone dilution series, at 50 μl/well, for 1 h at room temperature, with constant motion. For HSP90, 5 mM DTT is incorporated in the binding buffer (PBS/0.1% Tween20) to avoid unwanted disulfide bond formation of the HSP90. Plates were washed three times and incubated with anti-FLAG antibody (mouse antibody, M2, peroxidase conjugate; Sigma, A-8592) for BiP-FLAG-His, anti-His-tag antibody (Mouse Monoclonal Antibody, Cat. No. 70796, Novagen [0.2 mg/ml]) for HSP60, a 1:1 mix of 500-fold diluted anti-HSP90beta antibodies (Stressgen, SPA-643 [mouse monoclonal IgM], SPA-646 [rabbit polyclonal]) for HSP90 and an anti-DnaK antibody (Stressgen, 023SPA-880D [mouse monoclonal antibody]) for DnaK. After four wash cycles, secondary antibodies were added to the wells when required, 50 μl/well, for 45′ at room temperature, with motion. RAMPO and SWARPO were used at 3000 times dilution. […] In a second experiment with more immobilized misfolded proteins and controls, the detection of bound HSP90 with the mix of two anti-HSP90 antibodies was achieved by mixing 1:1500 SWARPO with 1:3000 RAMPO. After 5 washes with wash buffer followed by two washes with PBS, binding of antibodies was assessed. Bound anti-FLAG-PO, peroxidase-conjugated rabbit anti-mouse immunoglobulins (RAMPO, P0260, DAKOCytomation, Glostrup, Denmark) or peroxidase-coupled swine anti-rabbit immunoglobulins (SWARPO, P0217, DAKOCytomation) was visualized with tetramethylbenzidine (TMB, #45.01.20,/#45.014.01, Biosource, Nivelles, Belgium). The reaction was stopped after 5 minutes with 1% H2SO4 in H2O. Plates were read at 450 nm. Triplicates were averaged and standard deviations calculated. Background signals obtained with buffer-coated wells were subtracted (binding of primary antibody to empty wells), as well as background signals obtained with ligand-coated wells in which the chaperones were omitted (binding of primary and secondary antibody to coated ligands). Subsequently, sub-optimal concentrations of chaperones for binding to misfolded protein ligands are determined, and these concentrations are used for inhibition studies. […] We have previously identified that a sub-fraction of IgIV molecules has affinity for misfolded proteins comprising crossbeta structure (pending patent application). Moreover, we identified that the sub-fraction of IgIV molecules directly binds to crossbeta structure and/or crossbeta structure induced conformation (not shown; pending patent application). […]

T1 sequence (P0A6Y8 whole entry): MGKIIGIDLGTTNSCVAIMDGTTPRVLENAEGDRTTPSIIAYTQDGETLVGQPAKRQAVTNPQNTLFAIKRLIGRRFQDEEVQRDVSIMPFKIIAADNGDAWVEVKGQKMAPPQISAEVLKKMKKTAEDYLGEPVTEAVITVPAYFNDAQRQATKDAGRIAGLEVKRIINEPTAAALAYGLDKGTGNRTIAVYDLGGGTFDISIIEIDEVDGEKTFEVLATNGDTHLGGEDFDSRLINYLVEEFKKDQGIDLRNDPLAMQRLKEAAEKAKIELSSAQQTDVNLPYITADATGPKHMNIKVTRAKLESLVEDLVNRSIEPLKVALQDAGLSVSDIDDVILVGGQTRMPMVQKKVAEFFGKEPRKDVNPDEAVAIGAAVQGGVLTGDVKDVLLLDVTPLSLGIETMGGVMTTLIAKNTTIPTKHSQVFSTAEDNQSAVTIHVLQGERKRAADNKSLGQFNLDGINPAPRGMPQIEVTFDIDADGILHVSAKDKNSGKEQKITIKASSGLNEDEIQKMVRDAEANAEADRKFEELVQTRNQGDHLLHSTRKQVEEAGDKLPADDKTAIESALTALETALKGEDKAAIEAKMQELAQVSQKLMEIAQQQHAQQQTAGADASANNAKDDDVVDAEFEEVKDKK

**Q.** For AGEYYAAL [6BB7], which “Binding of concentration series of DnaK to coated ligand” value (“Binding of concentration series of DnaK” below) is on record?
**A.** The value was “No binding”.

**Q.** How did the “Binding of concentration series of DnaK” value turn out when BSA-AGE was run?
**A.** The value was “has been established”.

**Q.** Which “Binding of concentration series of DnaK” value does the source give for GSNKGAIIGLM [6BB6, Human Aβ (25-35)] here?
**A.** The value was “has been established”.

**Q.** For “Hb: non-modified human haemoglobin control”, which “Binding of concentration series of DnaK” value is on record?
**A.** Its value is “Low binding”.

**Q.** How did the “Binding of concentration series of DnaK” value turn out when “HbAGE: human haemoglobin glycated with glucose-6-phosphate for 75 weeks” was run?
**A.** Its value is “has been established”.

**Q.** KLVFFAE [6BB12, Human Aβ16-22] was tested. Which “Binding of concentration series of DnaK” value did it give?
**A.** Its value is “did not bind”.

**Q.** Which “Binding of concentration series of DnaK” value does the source give for “native BSA: non-modified bovine serum albumin control” here?
**A.** Its value is “No binding”.
